We go through 1 molecule from patent US20130171170A1 (published 2013).

For assay [1], the target named is T1, human CD22-beta-ECD-His tagged soluble antigen (human, UniProt P20273 22-681).
T1 construct: also called soluble CD22 extracellular domain (ECD); Soluble Human CD22
T1 sequence: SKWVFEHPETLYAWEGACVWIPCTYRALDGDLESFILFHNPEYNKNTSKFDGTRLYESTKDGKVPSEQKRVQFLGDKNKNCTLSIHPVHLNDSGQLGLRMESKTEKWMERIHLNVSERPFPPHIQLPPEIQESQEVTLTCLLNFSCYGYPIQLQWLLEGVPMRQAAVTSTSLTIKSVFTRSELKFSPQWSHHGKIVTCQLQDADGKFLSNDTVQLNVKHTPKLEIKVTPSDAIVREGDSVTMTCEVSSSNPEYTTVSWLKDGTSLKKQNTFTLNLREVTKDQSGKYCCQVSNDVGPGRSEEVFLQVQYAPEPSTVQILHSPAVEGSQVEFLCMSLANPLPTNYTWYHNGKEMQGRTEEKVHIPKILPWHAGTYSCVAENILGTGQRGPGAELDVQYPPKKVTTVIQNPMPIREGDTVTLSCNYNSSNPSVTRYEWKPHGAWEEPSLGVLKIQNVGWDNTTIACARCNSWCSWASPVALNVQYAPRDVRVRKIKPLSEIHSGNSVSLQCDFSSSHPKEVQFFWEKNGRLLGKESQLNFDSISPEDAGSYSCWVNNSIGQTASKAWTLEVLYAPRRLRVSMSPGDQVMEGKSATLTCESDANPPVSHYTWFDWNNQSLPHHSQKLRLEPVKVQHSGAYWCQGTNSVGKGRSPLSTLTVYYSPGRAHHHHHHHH
Put plainly: SPR (BIACORE 3000), antibody coupled to the chip, soluble CD22-beta-ECD-His injected, 25 C. The procedure: The binding affinity of murine and humanized 10F4 antibody for soluble CD22 extracellular domain (ECD) was determined by surface plasmon resonance measurement using a BIACORE® 3000 system (Biacore, Inc., Piscataway, N.J.). Briefly, carboxymethylated dextran biosensor chips (CMS, Biacore Inc.) were activated with N-ethyl-N′-(3-dimethylaminopropyl)-carbodiimide hydrochloride (EDC) and N-hydroxysuccinimide (NHS) according to the supplier's instructions. These activated chips were coated with anti-CD22 IgG1 antibody 10F4 (murine or humanized) by dilution to 5 μg/ml with 10 mM sodium acetate, pH 4.8, before injection at a flow rate of […] to achieve approximately 500 response units (RU) of coupled antibody. Next, 1M ethanolamine was injected to block unreacted groups. […] Association rates (kₒₙ) and dissociation rates (koff) were calculated using a simple one-to-one Langmuir binding model (BIAevaluation Software version 3.2). The equilibrium dissociation constant (Kd) was calculated as the ratio koff/kₒₙ. Anti-CD22 antibody, RFB4, was used as a control (Chemicon International, Inc., Temecula, Calif., catalog no. CBL147).

Assay [2] concerns the target T2, full length human CD22 (CD22beta) expressed on the surface of CHO cells (human, UniProt P20273 22-847).
T2 construct: CHO cells stably expressing full length human CD22; also called CD22beta (control cells)
Put plainly: cell-based competitive binding of 125I-labelled against unlabelled antibody on CHO cells, 4 h at 4 C, Scatchard analysis. The procedure: (§1) Briefly, CHO cells stably expressing full length human CD22 (SEQ ID NO:27) or cynomolgus monkey (cyno) CD22 (SEQ ID NO:31). […] A cell-based, competitive binding assay was performed using serially diluted, unlabeled anti-CD22 antibody. Antibodies were allowed to bind to the cells for 4 hours at 4° C. Binding affinity, KD, of the antibodies was determined in accordance with standard Scatchard analysis performed utilizing a non-linear curve fitting program (see, for example, Munson et al., Anal Biochem, 107: 220-239, 1980).

Assay [3] has as its target T3, cynomolgus monkey (cyno) CD22 expressed on the surface of CHO cells (cynomolgus monkey).
T3 construct: residues 1-19 (signal) should be removed
T3 chain: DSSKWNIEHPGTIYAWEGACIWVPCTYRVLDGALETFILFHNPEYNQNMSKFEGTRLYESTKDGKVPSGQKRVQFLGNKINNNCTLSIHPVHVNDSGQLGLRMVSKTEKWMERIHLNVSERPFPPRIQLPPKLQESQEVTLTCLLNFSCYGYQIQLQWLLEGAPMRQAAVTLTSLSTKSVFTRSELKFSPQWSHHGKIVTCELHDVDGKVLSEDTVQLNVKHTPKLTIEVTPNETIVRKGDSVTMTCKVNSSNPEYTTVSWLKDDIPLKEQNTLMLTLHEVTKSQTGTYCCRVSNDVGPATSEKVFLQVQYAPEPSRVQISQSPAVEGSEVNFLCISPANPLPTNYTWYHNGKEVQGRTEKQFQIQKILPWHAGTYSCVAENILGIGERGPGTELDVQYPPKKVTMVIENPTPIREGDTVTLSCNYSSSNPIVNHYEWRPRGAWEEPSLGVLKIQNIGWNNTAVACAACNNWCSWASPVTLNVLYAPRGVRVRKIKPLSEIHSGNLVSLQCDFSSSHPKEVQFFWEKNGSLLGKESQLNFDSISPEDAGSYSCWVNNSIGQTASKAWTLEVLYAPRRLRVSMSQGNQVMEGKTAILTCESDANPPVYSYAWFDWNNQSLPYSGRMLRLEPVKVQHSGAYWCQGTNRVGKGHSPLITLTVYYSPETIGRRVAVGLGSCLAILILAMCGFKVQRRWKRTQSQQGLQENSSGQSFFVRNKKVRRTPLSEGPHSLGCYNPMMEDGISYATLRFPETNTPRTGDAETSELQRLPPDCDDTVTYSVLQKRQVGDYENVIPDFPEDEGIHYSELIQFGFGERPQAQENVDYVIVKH
The description is as above. The procedure:
as §1

B1: murine anti-human CD22 10F4.4.1 monoclonal antibody (antibody, V domains shown)
VH: QVQLQQSGPELVKPGASVKISCKASGYEFSRSWMNWVKQRPGQGREWIGRIYPGDGDTNYSGKFKGKATLTADKSSSTAYMQLSSLTSVDSAVYFCARDGSSWDWYFDVWGAGTTVTVSS
VL: DILMTQTPLSLPVSLGDQASISCRSSQSIVHSNGNTFLEWYLQKPGQSPKLLIYKVSNRFSGVPDRFSGSGSGTDFTLKISRVEAEDLGVYYCFQGSQFPYTFGGGTKVEIK
notes: Murine hybridoma antibody (ATCC PTA-7621); also called mu 10F4; Mu 10F4.4.1
In assay [1], B1 showed a Kd of 15 nM, a koff of 0.00028 s⁻¹ and a kon of 19000 M⁻¹ s⁻¹. In assay [2], this molecule gave a Kd of 2.4 nM. In assay [3], this molecule showed a Kd of 2.3 nM.
